The record followed here is paper doi:10.1101/2025.11.10.687516 (bioRxiv, 2025).

What is called stoichiometry N is the number of molecules, sites or subunits per partner or assembly.

Values joined by “and” are separate entries in the source; they are usually repeats but may differ in a detail not shown here. Equal entries are not always repeated. Where two headings read alike, the source gives them in different places.

Series [1] concerns the molecule itself. The series can be described thus: SEC. On the technique in general: In gel filtration, larger molecules generally elute earlier.
Series [2] deals with the molecule itself. The series is described as follows: SEC. The source holds these as a separate data set.

B1: PhnO (natural protein, UniProt P16691 1-144, looked up)
chain: MPACELRPATQYDTDAVYALICELKQAEFDHHAFRVGFNANLRDPNMRYHLALLDGEVVGMIGLHLQFHLHHVNWIGEIQELVVMPQARGLNVGSKLLAWAEEEARQAGAEMTELSTNVKRHDAHRFYLREGYEQSHFRFTKAL
Take B1: the “stoichiometry N” value in series [1] was found to be 2.

B2: GrxB (natural protein, E. coli, UniProt P0AC59 1-215, looked up)
chain: MKLYIYDHCPYCLKARMIFGLKNIPVELHVLLNDDAETPTRMVGQKQVPILQKDDSRYMPESMDIVHYVDKLDGKPLLTGKRSPAIEEWLRKVNGYANKLLLPRFAKSAFDEFSTPAARKYFVDKKEASAGNFADLLAHSDGLIKNISDDLRALDKLIVKPNAVNGELSEDDIQLFPLLRNLTLVAGINWPSRVADYRDNMAKQTQINLLSSMAI
In the case of B2, the “stoichiometry N” value in series [2] was found to be 2.

B3: D-tagatose-1,6-bisphosphate aldolase subunit GatZ (natural protein, E. coli, UniProt P0C8J8 1-420, looked up)
chain: MKTLIARHKAGEHIGICSVCSAHPLVIEAALAFDRNSTRKVLIEATSNQVNQFGGYTGMTPADFREFVFTIADKVGFARERIILGGDHLGPNCWQQENADAAMEKSVELVKEYVRAGFSKIHLDASMSCAGDPIPLAPETVAERAAVLCFAAESVATDCQREQLSYVIGTEVPVPGGEASAIQSVHITHVEDAANTLRTHQKAFIARGLTEALTRVIAIVVQPGVEFDHSNIIHYQPQEAQPLAQWIENTRMVYEAHSTDYQTRTAYWELVRDHFAILKVGPALTFALREAIFALAQIEQELIAPENRSGCLAVIEEVMLDEPQYWKKYYRTGFNDSLLDIRYSLSDRIRYYWPHSRIKNSVETMMVNLEGVDIPLGMISQYLPKQFERIQSGELSAIPHQLIMDKIYDVLRAYRYGCAE
B3: in series [2], the “stoichiometry N” value was 2 and 4.
